# Measured values as given in patent US20210246166A1 (Bayer, published 2021).
# Numbered stars: 1 amine (or outer) side, 2 acyl side, 3 side chain; on linkers, the order of the positions; unused ones are H or OH. Bridge positions count the residues as written; N and C are the ends. Square brackets hold non-standard residues; d marks the D form. Ends that are not written are not given here. * marks the point of attachment. Phe(2,5-F2) = 2,5-difluorophenylalanine, O=C([C@H](Cc1cc(F)ccc1F)N[*:1])[*:2]; X12 = (S)‑(trifluoromethyl)‑L‑cysteine, O=C([C@H](CSC(F)(F)F)N[*:1])[*:2]; (N,N-diMe)A = (N,N-diMe)A, L-N,N-dimethylalanine, C[C@@H](C(=O)*)N(C)C; Leu(4-F) = 4-fluoroleucine, CC(C)(F)C[C@H](N[*:1])C(=O)[*:2]; Pro(4-spirocPr) = O=C(O)[C@@H]1CC2(CC2)CN1; Oic = O=C(O)[C@@H]1C[C@@H]2CCCC[C@@H]2N1; Phe(2-Cl) = N[C@@H](Cc1ccccc1Cl)C(=O)O; tBuAla = CC(C)(C)C[C@H](N)C(=O)O; Chg = N[C@H](C(=O)O)C1CCCCC1; Pen = CC(C)(S)[C@H](N)C(=O)O; ΔPro = O=C(O)[C@@H]1C=CCN1; 4Amb = NCc1ccc(C(=O)O)cc1; NMeC = CN[C@@H](CS)C(=O)O; Orn = NCCC[C@H](N)C(=O)O; Sar = CNCC(=O)O
# B1: ((N-Me)G)-IC+SRSLP-(Oic)-I-(Pen)+IP-NH2 (Acetate) (peptide)
# peptide: [Sar]ICSRSLP[Oic]I[Pen]IP-NH2
# modifications: disulfide 3-11; also: acetate salt
# B2: (4-(Aminomethyl)benzoic acid)-IC+SRS-((tBu)A)-PPI-((N-Me)C)+IPD-NH2 (peptide)
# peptide: [4Amb]ICSRS[tBuAla]PPI[NMeC]IPD-NH2
# modifications: disulfide 3-11; N-terminus assumed
# SMILES: CC[C@H](C)[C@H](NC(=O)c1ccc(CN)cc1)C(=O)N[C@H]1CSSC[C@@H](C(=O)N[C@H](C(=O)N2CCC[C@H]2C(=O)N[C@@H](CC(=O)O)C(N)=O)[C@@H](C)CC)N(C)C(=O)[C@H]([C@@H](C)CC)NC(=O)[C@@H]2CCCN2C(=O)[C@@H]2CCCN2C(=O)[C@H](CC(C)(C)C)NC(=O)[C@H](CO)NC(=O)[C@H](CCCNC(=N)N)NC(=O)[C@H](CO)NC1=O
# B3: ((N-Me)G)-IC+SRSLP-(Oic)-I-(Pen)+I-NH2 (peptide)
# peptide: [Sar]ICSRSLP[Oic]I[Pen]I-NH2
# modifications: disulfide 3-11; N-terminus assumed
# SMILES: CC[C@H](C)[C@H](NC(=O)[C@H]1NC(=O)[C@H]([C@@H](C)CC)NC(=O)[C@@H]2C[C@@H]3CCCC[C@@H]3N2C(=O)[C@@H]2CCCN2C(=O)[C@H](CC(C)C)NC(=O)[C@H](CO)NC(=O)[C@H](CCCNC(=N)N)NC(=O)[C@H](CO)NC(=O)[C@@H](NC(=O)[C@@H](NC(=O)CNC)[C@@H](C)CC)CSSC1(C)C)C(N)=O
# B4: AIC+SRSL-((4aR,6aR,9S,11aS)-11-Oxo-2,3,4,4a,6a,7,8,9,11,11a-decahydro-1H-pyrido[3,2-e]pyrrolo[1,2-a]azepine-9-carboxylic acid)-IC+IPD-NH2 (peptide)
# peptide: AICSRSL[(4aR,6aR,9S,11aS)‑11‑Oxo‑2,3,4,4a,6a,7,8,9,11,11a‑decahydro‑1H‑pyrido(3,2-e)pyrrolo(1,2-a)azepine‑9‑carboxylic acid]ICIPD-NH2
# modifications: disulfide 3-10
# B5: AIC+SRSL-(L-dehydroproline)-(Oic)-I-(Pen)+IPD-OH (peptide)
# peptide: AICSRSL[ΔPro][Oic]I[Pen]IPD-OH
# modifications: disulfide 3-11; N-terminus assumed
# SMILES: CC[C@H](C)[C@H](NC(=O)[C@H](C)N)C(=O)N[C@H]1CSSC(C)(C)[C@@H](C(=O)N[C@H](C(=O)N2CCC[C@H]2C(=O)N[C@@H](CC(=O)O)C(=O)O)[C@@H](C)CC)NC(=O)[C@H]([C@@H](C)CC)NC(=O)[C@@H]2C[C@@H]3CCCC[C@@H]3N2C(=O)[C@@H]2C=CCN2C(=O)[C@H](CC(C)C)NC(=O)[C@H](CO)NC(=O)[C@H](CCCNC(=N)N)NC(=O)[C@H](CO)NC1=O
# B6: AIC+SRS-((tBu)A)-P-(Oic)-I-C+IPD-NH2 (peptide)
# peptide: AICSRS[tBuAla]P[Oic]ICIPD-NH2
# modifications: disulfide 3-11; N-terminus assumed
# SMILES: CC[C@H](C)[C@H](NC(=O)[C@H](C)N)C(=O)N[C@H]1CSSC[C@@H](C(=O)N[C@H](C(=O)N2CCC[C@H]2C(=O)N[C@@H](CC(=O)O)C(N)=O)[C@@H](C)CC)NC(=O)[C@H]([C@@H](C)CC)NC(=O)[C@@H]2C[C@@H]3CCCC[C@@H]3N2C(=O)[C@@H]2CCCN2C(=O)[C@H](CC(C)(C)C)NC(=O)[C@H](CO)NC(=O)[C@H](CCCNC(=N)N)NC(=O)[C@H](CO)NC1=O
# B7: (Orn)-IC+SRS-((S)-(trifluoromethyl)-L-cysteine)-PPI-(Pen)+IP-NH2 (peptide)
# peptide: [Orn]ICSRS[X12]PPI[Pen]IP-NH2
# modifications: disulfide 3-11; N-terminus assumed
# SMILES: CC[C@H](C)[C@H](NC(=O)[C@@H](N)CCCN)C(=O)N[C@H]1CSSC(C)(C)[C@@H](C(=O)N[C@H](C(=O)N2CCC[C@H]2C(N)=O)[C@@H](C)CC)NC(=O)[C@H]([C@@H](C)CC)NC(=O)[C@@H]2CCCN2C(=O)[C@@H]2CCCN2C(=O)[C@H](CSC(F)(F)F)NC(=O)[C@H](CO)NC(=O)[C@H](CCCNC(=N)N)NC(=O)[C@H](CO)NC1=O
# B8: AIC+SRSLP-((6S)-5-Azaspiro[2.4]heptane-6-carboxylic acid)-IC+IPD-NH2 (peptide)
# peptide: AICSRSLP[Pro(4-spirocPr)]ICIPD-NH2
# modifications: disulfide 3-11; N-terminus assumed
# SMILES: CC[C@H](C)[C@H](NC(=O)[C@H](C)N)C(=O)N[C@H]1CSSC[C@@H](C(=O)N[C@H](C(=O)N2CCC[C@H]2C(=O)N[C@@H](CC(=O)O)C(N)=O)[C@@H](C)CC)NC(=O)[C@H]([C@@H](C)CC)NC(=O)[C@@H]2CC3(CC3)CN2C(=O)[C@@H]2CCCN2C(=O)[C@H](CC(C)C)NC(=O)[C@H](CO)NC(=O)[C@H](CCCNC(=N)N)NC(=O)[C@H](CO)NC1=O
# B9: AIC+SRS-((2,5-Difluoro)F)-PPI-((N-Me)C)+IPD-NH2 (peptide)
# peptide: AICSRS[Phe(2,5-F2)]PPI[NMeC]IPD-NH2
# modifications: disulfide 3-11; N-terminus assumed
# SMILES: CC[C@H](C)[C@H](NC(=O)[C@H](C)N)C(=O)N[C@H]1CSSC[C@@H](C(=O)N[C@H](C(=O)N2CCC[C@H]2C(=O)N[C@@H](CC(=O)O)C(N)=O)[C@@H](C)CC)N(C)C(=O)[C@H]([C@@H](C)CC)NC(=O)[C@@H]2CCCN2C(=O)[C@@H]2CCCN2C(=O)[C@H](Cc2cc(F)ccc2F)NC(=O)[C@H](CO)NC(=O)[C@H](CCCNC(=N)N)NC(=O)[C@H](CO)NC1=O
# B10: (Orn)-IC+SRSLPPIC+I-NH2 (peptide)
# peptide: [Orn]ICSRSLPPICI-NH2
# modifications: disulfide 3-11; N-terminus assumed
# SMILES: CC[C@H](C)[C@H](NC(=O)[C@@H]1CSSC[C@H](NC(=O)[C@@H](NC(=O)[C@@H](N)CCCN)[C@@H](C)CC)C(=O)N[C@@H](CO)C(=O)N[C@@H](CCCNC(=N)N)C(=O)N[C@@H](CO)C(=O)N[C@@H](CC(C)C)C(=O)N2CCC[C@H]2C(=O)N2CCC[C@H]2C(=O)N[C@@H]([C@@H](C)CC)C(=O)N1)C(N)=O
# B11: ((N-Me)G)-IC+SRS-((tBu)A)-PPIC+IPD-OH (peptide)
# peptide: [Sar]ICSRS[tBuAla]PPICIPD-OH
# modifications: disulfide 3-11; N-terminus assumed
# SMILES: CC[C@H](C)[C@H](NC(=O)CNC)C(=O)N[C@H]1CSSC[C@@H](C(=O)N[C@H](C(=O)N2CCC[C@H]2C(=O)N[C@@H](CC(=O)O)C(=O)O)[C@@H](C)CC)NC(=O)[C@H]([C@@H](C)CC)NC(=O)[C@@H]2CCCN2C(=O)[C@@H]2CCCN2C(=O)[C@H](CC(C)(C)C)NC(=O)[C@H](CO)NC(=O)[C@H](CCCNC(=N)N)NC(=O)[C@H](CO)NC1=O
# B12: AIC+SRS-((4-Fluoro)L)-PPIC+IPD-NH2 (peptide)
# peptide: AICSRS[Leu(4-F)]PPICIPD-NH2
# modifications: disulfide 3-11; N-terminus assumed
# SMILES: CC[C@H](C)[C@H](NC(=O)[C@H](C)N)C(=O)N[C@H]1CSSC[C@@H](C(=O)N[C@H](C(=O)N2CCC[C@H]2C(=O)N[C@@H](CC(=O)O)C(N)=O)[C@@H](C)CC)NC(=O)[C@H]([C@@H](C)CC)NC(=O)[C@@H]2CCCN2C(=O)[C@@H]2CCCN2C(=O)[C@H](CC(C)(C)F)NC(=O)[C@H](CO)NC(=O)[C@H](CCCNC(=N)N)NC(=O)[C@H](CO)NC1=O
# B13: AIC+SRS-((2-Chloro)F)-PPI-((N-Me)C)+IPD-NH2 (peptide)
# peptide: AICSRS[Phe(2-Cl)]PPI[NMeC]IPD-NH2
# modifications: disulfide 3-11; N-terminus assumed
# SMILES: CC[C@H](C)[C@H](NC(=O)[C@H](C)N)C(=O)N[C@H]1CSSC[C@@H](C(=O)N[C@H](C(=O)N2CCC[C@H]2C(=O)N[C@@H](CC(=O)O)C(N)=O)[C@@H](C)CC)N(C)C(=O)[C@H]([C@@H](C)CC)NC(=O)[C@@H]2CCCN2C(=O)[C@@H]2CCCN2C(=O)[C@H](Cc2ccccc2Cl)NC(=O)[C@H](CO)NC(=O)[C@H](CCCNC(=N)N)NC(=O)[C@H](CO)NC1=O
# B14: AIC+SRSLPP-(Chg)-C+I-NH2 (peptide)
# peptide: AICSRSLPP[Chg]CI-NH2
# modifications: disulfide 3-11; N-terminus assumed
# SMILES: CC[C@H](C)[C@H](NC(=O)[C@@H]1CSSC[C@H](NC(=O)[C@@H](NC(=O)[C@H](C)N)[C@@H](C)CC)C(=O)N[C@@H](CO)C(=O)N[C@@H](CCCNC(=N)N)C(=O)N[C@@H](CO)C(=O)N[C@@H](CC(C)C)C(=O)N2CCC[C@H]2C(=O)N2CCC[C@H]2C(=O)N[C@@H](C2CCCCC2)C(=O)N1)C(N)=O
# B15: ((N,N-diMe)A)-IC+SRS-((tBu)A)-PPIC+IPD-NH2 (peptide)
# peptide: [(N,N-diMe)A]ICSRS[tBuAla]PPICIPD-NH2
# modifications: disulfide 3-11; N-terminus assumed
# SMILES: CC[C@H](C)[C@H](NC(=O)[C@H](C)N(C)C)C(=O)N[C@H]1CSSC[C@@H](C(=O)N[C@H](C(=O)N2CCC[C@H]2C(=O)N[C@@H](CC(=O)O)C(N)=O)[C@@H](C)CC)NC(=O)[C@H]([C@@H](C)CC)NC(=O)[C@@H]2CCCN2C(=O)[C@@H]2CCCN2C(=O)[C@H](CC(C)(C)C)NC(=O)[C@H](CO)NC(=O)[C@H](CCCNC(=N)N)NC(=O)[C@H](CO)NC1=O
# Molecular target: T1, Recombinant human MASP1 enzyme (fragment corresponding to amino acids 297-699, C-terminal His Tag) (human, UniProt P48740 297-699)
# T1 sequence: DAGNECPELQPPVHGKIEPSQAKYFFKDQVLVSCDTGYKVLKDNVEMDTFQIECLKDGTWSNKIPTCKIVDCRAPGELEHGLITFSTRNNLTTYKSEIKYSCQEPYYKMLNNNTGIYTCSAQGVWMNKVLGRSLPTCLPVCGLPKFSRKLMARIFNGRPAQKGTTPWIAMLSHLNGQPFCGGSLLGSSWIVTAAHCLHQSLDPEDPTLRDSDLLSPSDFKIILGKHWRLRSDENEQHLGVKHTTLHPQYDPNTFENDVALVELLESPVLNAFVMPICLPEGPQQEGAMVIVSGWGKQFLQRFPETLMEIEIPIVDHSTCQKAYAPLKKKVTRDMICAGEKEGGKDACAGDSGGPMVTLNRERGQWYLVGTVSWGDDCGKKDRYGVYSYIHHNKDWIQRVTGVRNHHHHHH
# Test: cell-based or functional assay
row,human MASP1 IC50,Binder
1,1.4 nM,B1
2,8.1 nM,B2
3,8.45 nM,B3
4,8.2 nM,B4
5,9.3 nM,B5
6,7.4 nM,B6
7,8.1 nM,B7
8,8.5 nM,B8
9,7.6 nM,B9
10,7.8 nM,B10
11,8.8 nM,B11
12,8.9 nM,B12
13,8.1 nM,B13
14,8.9 nM,B14
15,8.3 nM,B15

# Molecular target: Recombinant human MASP2 enzyme (fragment corresponding to amino acids 297-686, C-terminal His Tag) (human, UniProt O00187 297-686)
# Sequence (O00187 other isoform, or with tags, fused parts or gaps limits assumed): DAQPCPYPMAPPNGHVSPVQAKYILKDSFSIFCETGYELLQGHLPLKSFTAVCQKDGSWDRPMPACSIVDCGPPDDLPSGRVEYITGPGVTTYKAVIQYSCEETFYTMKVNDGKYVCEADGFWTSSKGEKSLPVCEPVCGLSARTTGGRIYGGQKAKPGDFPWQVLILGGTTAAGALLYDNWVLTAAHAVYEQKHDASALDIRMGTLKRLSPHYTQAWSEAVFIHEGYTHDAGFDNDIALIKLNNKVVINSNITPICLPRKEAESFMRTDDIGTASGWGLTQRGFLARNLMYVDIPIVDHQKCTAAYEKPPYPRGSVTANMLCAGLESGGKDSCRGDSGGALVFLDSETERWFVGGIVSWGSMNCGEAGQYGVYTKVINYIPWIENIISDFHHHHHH
# Test: cell-based or functional assay
row,human MASP2 IC50,Binder
1,37 nM,B1
2,35 nM,B2
3,295 nM,B3
4,72.5 nM,B4
5,64 nM,B5
6,260 nM,B6
7,56 nM,B7
8,33 nM,B8
9,63 nM,B9
10,190 nM,B10
11,2600 nM,B11
12,300 nM,B12
13,130 nM,B13
14,92 nM,B14
15,120 nM,B15
